Laboratory results taken from PMC9850916.

Molecular target: mutant human FcγRIIIa (V158) ectodomain (amino acid residues 1–175) with nine amino acid mutations a (human)
Experiment: SPR

Substance: Expi293-derived adalimumab (antibody)
- Kd: 1550 nM
- koff: 0.062 s⁻¹
- kon: 40000 M⁻¹ s⁻¹
